Test results published in publication PMC6555819, “Comprehensive study of nuclear receptor DNA binding provides a revised framework for understanding receptor specificity”.

Molecular target: PPARg:RXRa (Homo sapiens, UniProt P37231;P19793 full;full)
Assay: no ligand; PBM; 180 nM : 90 nM RXRa; PBS pH 7.4, 2% milk, 0.02% Triton X-100, 1 mM DTT, BSA, 0.4 mg/ml salmon testes DNA
Settings: tags: His kept;His cleaved; copies: 1;1; label: surface-attached array probe

Sequence of PPARg:RXRa (P37231 29-505, chain 1 of 2): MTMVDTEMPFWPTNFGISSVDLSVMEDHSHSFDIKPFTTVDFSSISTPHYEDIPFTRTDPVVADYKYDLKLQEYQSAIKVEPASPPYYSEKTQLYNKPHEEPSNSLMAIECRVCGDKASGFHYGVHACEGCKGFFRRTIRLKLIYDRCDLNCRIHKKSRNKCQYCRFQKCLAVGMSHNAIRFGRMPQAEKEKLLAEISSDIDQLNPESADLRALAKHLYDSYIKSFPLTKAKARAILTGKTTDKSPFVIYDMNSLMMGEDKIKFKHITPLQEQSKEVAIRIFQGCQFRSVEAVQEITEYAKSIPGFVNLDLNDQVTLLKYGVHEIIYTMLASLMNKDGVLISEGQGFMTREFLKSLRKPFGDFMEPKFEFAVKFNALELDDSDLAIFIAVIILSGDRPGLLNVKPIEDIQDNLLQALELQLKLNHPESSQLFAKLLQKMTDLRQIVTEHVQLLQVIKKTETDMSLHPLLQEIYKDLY
Sequence of PPARg:RXRa (P19793 whole entry, chain 2 of 2): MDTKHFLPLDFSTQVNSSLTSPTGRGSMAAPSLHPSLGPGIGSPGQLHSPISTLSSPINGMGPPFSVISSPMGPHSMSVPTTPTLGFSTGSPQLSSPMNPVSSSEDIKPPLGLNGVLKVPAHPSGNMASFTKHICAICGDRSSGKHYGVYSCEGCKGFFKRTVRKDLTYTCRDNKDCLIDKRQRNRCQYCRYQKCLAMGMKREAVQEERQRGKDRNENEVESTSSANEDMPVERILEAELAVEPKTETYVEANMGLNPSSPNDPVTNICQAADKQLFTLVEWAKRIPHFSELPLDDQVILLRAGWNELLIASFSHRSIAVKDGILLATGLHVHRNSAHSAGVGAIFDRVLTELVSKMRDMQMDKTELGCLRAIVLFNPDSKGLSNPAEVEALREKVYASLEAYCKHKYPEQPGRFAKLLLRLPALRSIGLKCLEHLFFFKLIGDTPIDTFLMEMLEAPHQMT

| Binder | binding signal |
| --- | --- |
| NRC3_wobSeed135_DR5_A14C_o1 (dsDNA) DNA 1: GCCGAACTAGGTCCTTGACAGGACAGTGAATAGTAAGCGATTGACAGCGTAGAATGAAGG DNA 2: CCTTCATTCTACGCTGTCAATCGCTTACTATTCACTGTCCTGTCAAGGACCTAGTTCGGC | 0.43 PBM z-score against 500 random probes |
| NRC3_wobSeed64_DR2_C13G_o1 (dsDNA) DNA 1: GCTAGCCTAGGTGATTGGGCCAGTATAGTACGCATCGCGATTGACAGCGTAGAATGAAGG DNA 2: CCTTCATTCTACGCTGTCAATCGCGATGCGTACTATACTGGCCCAATCACCTAGGCTAGC | 0.42 PBM z-score against 500 random probes |
| NRC3_wobSeed33_DR1_A16T_o1 (dsDNA) DNA 1: GCATCTCTAGGTAAATGTTCAGTGAATCCCGAGGATGCGATTGACAGCGTAGAATGAAGG DNA 2: CCTTCATTCTACGCTGTCAATCGCATCCTCGGGATTCACTGAACATTTACCTAGAGATGC | 0.4 PBM z-score against 500 random probes |
| NRC3_wobSeed13_DR0_G10C_o1 (dsDNA) DNA 1: GCCGTCCAACGTCAAGGTCAGTGAAAGAGACTCGAAGCGATTGACAGCGTAGAATGAAGG DNA 2: CCTTCATTCTACGCTGTCAATCGCTTCGAGTCTCTTTCACTGACCTTGACGTTGGACGGC | 0.38 PBM z-score against 500 random probes |
| NRC3_wobSeed72_DR2_G11C_o1 (dsDNA) DNA 1: GCTCGAGTAGCTTACGGGGGCATTCAGGGATGAAGAGCGATTGACAGCGTAGAATGAAGG DNA 2: CCTTCATTCTACGCTGTCAATCGCTCTTCATCCCTGAATGCCCCCGTAAGCTACTCGAGC | 0.35 PBM z-score against 500 random probes |
| NRC3_wobSeed76_DR3_A18C_o1 (dsDNA) DNA 1: GCCCTACTGGGCCAAAACGGTCATTGATGCCGATAAGCGATTGACAGCGTAGAATGAAGG DNA 2: CCTTCATTCTACGCTGTCAATCGCTTATCGGCATCAATGACCGTTTTGGCCCAGTAGGGC | 0.35 PBM z-score against 500 random probes |
| NRC3_wobSeed38_DR1_T12A_o1 (dsDNA) DNA 1: GCCCTGCTAGGACAATGGTCAGCTAAAGCAGCTCGCGCGATTGACAGCGTAGAATGAAGG DNA 2: CCTTCATTCTACGCTGTCAATCGCGCGAGCTGCTTTAGCTGACCATTGTCCTAGCAGGGC | 0.3 PBM z-score against 500 random probes |
| NRC3_wobSeed63_DR2_G11C_o1 (dsDNA) DNA 1: GCCGAACTAGCTCACCAGGACAGTGAAGAGGTTGGAGCGATTGACAGCGTAGAATGAAGG DNA 2: CCTTCATTCTACGCTGTCAATCGCTCCAACCTCTTCACTGTCCTGGTGAGCTAGTTCGGC | 0.17 PBM z-score against 500 random probes |
| NRC3_wobSeed4_DR0_G17C_o1 (dsDNA) DNA 1: GCCCTACTGGGCCAAGCTCATTGATCAGTCAAAGCAGCGATTGACAGCGTAGAATGAAGG DNA 2: CCTTCATTCTACGCTGTCAATCGCTGCTTTGACTGATCAATGAGCTTGGCCCAGTAGGGC | 0.05 PBM z-score against 500 random probes |
| NRC3_wobSeed41_DR1_T23G_o1 (dsDNA) DNA 1: GCATATGTAGGTTAAGGGTCATGCAGGTTGGTTCGCGCGATTGACAGCGTAGAATGAAGG DNA 2: CCTTCATTCTACGCTGTCAATCGCGCGAACCAACCTGCATGACCCTTAACCTACATATGC | 12.4 PBM z-score against 500 random probes |
| NRC3_wobSeed32_DR1_G18C_o1 (dsDNA) DNA 1: GCTCTTGTAGATCAAAGCTTAAGAAAGCCGAAGCCTGCGATTGACAGCGTAGAATGAAGG DNA 2: CCTTCATTCTACGCTGTCAATCGCAGGCTTCGGCTTTCTTAAGCTTTGATCTACAAGAGC | -0.29 PBM z-score against 500 random probes |
| NRC3_random_hg19_164_o1 (dsDNA) DNA 1: GCCATGAGGACCTGCAGCGCAATGACCTCCGAGGCAGCGATTGACAGCGTAGAATGAAGG DNA 2: CCTTCATTCTACGCTGTCAATCGCTGCCTCGGAGGTCATTGCGCTGCAGGTCCTCATGGC | 0.42 PBM z-score against 500 random probes |
| NRC3_random_hg19_493_o1 (dsDNA) DNA 1: GCGCCTAGCAGTCTATACAATTCTGAAGGATGCACCGCGATTGACAGCGTAGAATGAAGG DNA 2: CCTTCATTCTACGCTGTCAATCGCGGTGCATCCTTCAGAATTGTATAGACTGCTAGGCGC | 0.38 PBM z-score against 500 random probes |
| NRC3_random_hg19_481_o1 (dsDNA) DNA 1: GCCCTTCTTAGTATCTGGGACAACAGGTGTGTGCTAGCGATTGACAGCGTAGAATGAAGG DNA 2: CCTTCATTCTACGCTGTCAATCGCTAGCACACACCTGTTGTCCCAGATACTAAGAAGGGC | 0.31 PBM z-score against 500 random probes |
| NRC3_random_hg19_211_o1 (dsDNA) DNA 1: GCATCACTATTCCCAACTTCAGGAGTAACCAGTATTGCGATTGACAGCGTAGAATGAAGG DNA 2: CCTTCATTCTACGCTGTCAATCGCAATACTGGTTACTCCTGAAGTTGGGAATAGTGATGC | 0.12 PBM z-score against 500 random probes |
| NRC3_random_hg19_453_o1 (dsDNA) DNA 1: GCATGATCATGGCTCACTGCAGCCTCGACCTCCAGAGCGATTGACAGCGTAGAATGAAGG DNA 2: CCTTCATTCTACGCTGTCAATCGCTCTGGAGGTCGAGGCTGCAGTGAGCCATGATCATGC | 0.09 PBM z-score against 500 random probes |
| NRC3_random_hg19_11_o1 (dsDNA) DNA 1: GCTGAGTCAGAACCACCCAGCTAAGCCACCATCAAAGCGATTGACAGCGTAGAATGAAGG DNA 2: CCTTCATTCTACGCTGTCAATCGCTTTGATGGTGGCTTAGCTGGGTGGTTCTGACTCAGC | -0.05 PBM z-score against 500 random probes |
| NRC3_random_hg19_85_o1 (dsDNA) DNA 1: GCTGGCTGGCACCTGTGTTCCAACAACTTGAGAGAGGCGATTGACAGCGTAGAATGAAGG DNA 2: CCTTCATTCTACGCTGTCAATCGCCTCTCTCAAGTTGTTGGAACACAGGTGCCAGCCAGC | -0.09 PBM z-score against 500 random probes |
| NRC3_wobSeed36_DR1_C4G_o1 (dsDNA) DNA 1: GCCGGACTGGGGCAAAGGTTACCATACTCAGTACGAGCGATTGACAGCGTAGAATGAAGG DNA 2: CCTTCATTCTACGCTGTCAATCGCTCGTACTGAGTATGGTAACCTTTGCCCCAGTCCGGC | 12.2 PBM z-score against 500 random probes |
| NRC3_random_hg19_181_o1 (dsDNA) DNA 1: GCGCAGCATTTGTGTGCATGTATGCTGTGTGTATGCGCGATTGACAGCGTAGAATGAAGG DNA 2: CCTTCATTCTACGCTGTCAATCGCGCATACACACAGCATACATGCACACAAATGCTGCGC | -0.13 PBM z-score against 500 random probes |
| NRC3_random_hg19_81_o1 (dsDNA) DNA 1: GCGACTTTGTTGCCTAGGCTGGAATCTATCATGGCTGCGATTGACAGCGTAGAATGAAGG DNA 2: CCTTCATTCTACGCTGTCAATCGCAGCCATGATAGATTCCAGCCTAGGCAACAAAGTCGC | -0.16 PBM z-score against 500 random probes |
| NRC3_random_hg19_220_o1 (dsDNA) DNA 1: GCTTGGTTGCAAGCAATACAAAGCAACTCTTGCTAAGCGATTGACAGCGTAGAATGAAGG DNA 2: CCTTCATTCTACGCTGTCAATCGCTTAGCAAGAGTTGCTTTGTATTGCTTGCAACCAAGC | -0.18 PBM z-score against 500 random probes |
| NRC3_random_hg19_333_o1 (dsDNA) DNA 1: GCATGCCTGTAATCCCAGCTACTTGGGAGGCTGAGAGCGATTGACAGCGTAGAATGAAGG DNA 2: CCTTCATTCTACGCTGTCAATCGCTCTCAGCCTCCCAAGTAGCTGGGATTACAGGCATGC | -0.21 PBM z-score against 500 random probes |
| NRC3_random_hg19_88_o1 (dsDNA) DNA 1: GCAGATTGCTGGCCAACTGCTCCTGATCCATTACTAGCGATTGACAGCGTAGAATGAAGG DNA 2: CCTTCATTCTACGCTGTCAATCGCTAGTAATGGATCAGGAGCAGTTGGCCAGCAATCTGC | -0.23 PBM z-score against 500 random probes |
